Experimental data published in patent publication US20030186281A1, “Modified tetracycline repressor protein compositions and methods of use” (priority 2001, published 2003).
Where a chain is given by its changes, count along the chain named. In names and notes the source's numbering stands.

B1: TetRrev4/6-5: revTetR(BD) A54S V99R (protein)
chain: MSRLDKSKVINSALELLNEVGIEGLTTRKLAQKLGVEQPTLYWHVKNKRALLDSLAVEILARHHDYSLPAAGESWQSFLRNNAMSFRRALLRYRDGAKRHLGTRPDEKQYDTVETQLRFMTENGFSLRDGLYAISAVSHFTLGAVLEQQEHTAALTDRPAAPDENLPPLLREALQIMDSDDGEQAFLHGLESLIRGFEVQLTALLQIV
modifications: Modified tetracycline repressor
notes: revTetR(BD) A54S V99R
B2: TetRrev28/46: revTetR(BD) A13A V20G G21R I22N G24G (protein)
chain: B1 chain with V20G, G21R, I22N, S54A, R99V
modifications: Modified tetracycline repressor
notes: revTetR(BD) A13A V20G G21R I22N G24G
B3: TetRrev19/48: revTetR(BD) N18K E19D V20L I22N E23A (protein)
chain: B1 chain with N18K, E19D, V20L, I22N, E23A, S54A, R99V
modifications: Modified tetracycline repressor
notes: revTetR(BD) N18K E19D V20L I22N E23A
B4: TetRrev4/6-27: revTetR(BD) V99R (protein)
chain: B1 chain with S54A
modifications: Modified tetracycline repressor
notes: revTetR(BD) V99R
B5: TetRrev28/8: revTetR(BD) L14S N18Y I22F L25L (protein)
chain: B1 chain with L14S, N18Y, I22F, S54A, R99V
modifications: Modified tetracycline repressor
notes: revTetR(BD) L14S N18Y I22F L25L
B6: TetRrev4/6-17: revTetR(BD) G99R V99L L101I (protein)
chain: B1 chain with S54A, G96R, R99L, L101I
modifications: Modified tetracycline repressor
notes: revTetR(BD) G99R V99L L101I
B7: TetRrev4/6-24: revTetR(BD) A61T V99R (protein)
chain: B1 chain with S54A, A61T
modifications: Modified tetracycline repressor
notes: revTetR(BD) A61T V99R
B8: TetRrev3/38: revTetR(BD) L17H I22F E23G (protein)
chain: B1 chain with L17H, I22F, E23G, S54A, R99V
modifications: Modified tetracycline repressor
notes: revTetR(BD) L17H I22F E23G
B9: TetRrev1/34: revTetR(BD) L17S E23K (protein)
chain: B1 chain with L17S, E23K, S54A, R99V
modifications: Modified tetracycline repressor
notes: revTetR(BD) L17S E23K
B10: TetRrev4/6-6: revTetR(BD) D53Y V57V A61P (protein)
chain: B1 chain with D53Y, S54A, A61P, R99V
modifications: Modified tetracycline repressor
notes: revTetR(BD) D53Y V57V A61P
B11: TetRrev4/6-25: revTetR(BD) I59S L60L R62G D95A V99L (protein)
chain: B1 chain with S54A, I59S, R62G, D95A, R99L
modifications: Modified tetracycline repressor
notes: revTetR(BD) I59S L60L R62G D95A V99L
B12: TetRrev28/16: revTetR(BD) L14L E15A L17G L25V (protein)
chain: B1 chain with E15A, L17G, L25V, S54A, R99V
modifications: Modified tetracycline repressor
notes: revTetR(BD) L14L E15A L17G L25V
B13: TetRrev28/41: revTetR(BD) L17L N18D V20R I22N (protein)
chain: B1 chain with N18D, V20R, I22N, S54A, R99V
modifications: Modified tetracycline repressor
notes: revTetR(BD) L17L N18D V20R I22N
B14: TetRrev28/23: revTetR(BD) A13A L14S N18K E23V (protein)
chain: B1 chain with L14S, N18K, E23V, S54A, R99V
modifications: Modified tetracycline repressor
notes: revTetR(BD) A13A L14S N18K E23V
B15: TetRrev28/36: revTetR(BD) N18I E19G V20G E23V (protein)
chain: B1 chain with N18I, E19G, V20G, E23V, S54A, R99V
modifications: Modified tetracycline repressor
notes: revTetR(BD) N18I E19G V20G E23V
B16: TetRrev28/49: revTetR(BD) N18Y V20D I22T (protein)
chain: B1 chain with N18Y, E19D, I22T, S54A, R99V
modifications: Modified tetracycline repressor
notes: revTetR(BD) N18Y V20D I22T
B17: TetRrev28/31: revTetR(BD) A13A V20G G21R I22N G24G (protein)
chain: B1 chain with V20G, G21R, I22N, S54A, R99V
modifications: Modified tetracycline repressor
notes: as for B2
B18: TetRrev28/26: revTetR(BD) L14T N18Y G21G I22F (protein)
chain: B1 chain with L14T, N18Y, I22F, S54A, R99V
modifications: Modified tetracycline repressor
notes: revTetR(BD) L14T N18Y G21G I22F
B19: TetRrev28/40: revTetR(BD) L14S N18Y I22F L25L (protein)
chain: B1 chain with L14S, N18Y, I22F, S54A, R99V
modifications: Modified tetracycline repressor
notes: as for B5
B20: TetRrev22/5: revTetR(BD) E15V L17A E19D (protein)
chain: B1 chain with E15V, L17A, E19D, S54A, R99V
modifications: Modified tetracycline repressor
notes: revTetR(BD) E15V L17A E19D
B21: TetRrev4/6-7: revTetR(BD) L55L L60V A97V V99G (protein)
chain: B1 chain with S54A, L60V, A97V, R99G
modifications: Modified tetracycline repressor
notes: revTetR(BD) L55L L60V A97V V99G
B22: TetRrev28/30: revTetR(BD) V20G G21A I22I E23G (protein)
chain: B1 chain with V20G, G21A, E23G, S54A, R99V
modifications: Modified tetracycline repressor
notes: revTetR(BD) V20G G21A I22I E23G
B23: TetRrev4/6-10: revTetR(BD) A56S V99E (protein)
chain: B1 chain with S54A, A56S, R99E
modifications: Modified tetracycline repressor
notes: revTetR(BD) A56S V99E
B24: TetRrev4/6-15: revTetR(BD) A56S I59A L60W V99V (protein)
chain: B1 chain with S54A, A56S, I59A, L60W, R99V
modifications: Modified tetracycline repressor
notes: revTetR(BD) A56S I59A L60W V99V
B25: TetRrev28/48: revTetR(BD) N18Y V20D I22T W43S (protein)
chain: B1 chain with N18Y, V20D, I22T, W43S, S54A, R99V
modifications: Modified tetracycline repressor
notes: revTetR(BD) N18Y V20D I22T W43S
B26: TetRrev28/27: revTetR(BD) L17G I22M (protein)
chain: B1 chain with L17G, I22M, S54A, R99V
modifications: Modified tetracycline repressor
notes: revTetR(BD) L17G I22M
B27: TetRrev25/43: revTetR(BD) L17F E19- G24G (protein)
chain: MSRLDKSKVINSALELFNVGIEGLTTRKLAQKLGVEQPTLYWHVKNKRALLDALAVEILARHHDYSLPAAGESWQSFLRNNAMSFRRALLRYRDGAKVHLGTRPDEKQYDTVETQLRFMTENGFSLRDGLYAISAVSHFTLGAVLEQQEHTAALTDRPAAPDENLPPLLREALQIMDSDDGEQAFLHGLESLIRGFEVQLTALLQIV
modifications: Modified tetracycline repressor
notes: revTetR(BD) L17F E19- G24G

tested on: tet operator sequence; assay: β-galactosidase activity of a tetracycline-regulated promoter in transformed E. coli with revTetR, in the presence and absence of anhydrotetracycline (atc); type: cell-based, Escherichia coli; conditions: RevTetR isolate cultured in the absence of anhydrotetracycline (ATC)
Procedure, shortened: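 TetR(BD) chimera mutants (TetR(B) residues 1–50, TetR(D) 51–208) expressed in E. coli regulating a tet operator-controlled lacZ. β-Galactosidase measured in Miller units at 28 °C and 37 °C with and without anhydrotetracycline; reported as percent of maximal expression without Tet repressor.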

Row | Molecule | β-Galactosidase Activity, Cultured Without ATC
1 | B1 | 97.92
2 | B2 | 95.9627
3 | B3 | 79.9581
4 | B4 | 108
5 | B5 | 98.6289
6 | B6 | 54.403
7 | B7 | 95.596
8 | B8 | 97.043
9 | B9 | 79.3141
10 | B10 | 67.879
11 | B11 | 102.926
12 | B12 | 96.3269
13 | B13 | 15.4643
14 | B14 | 92.2055
15 | B15 | 65.5335
16 | B16 | 62.5137
17 | B17 | 99.8749
18 | B18 | 89.3918
19 | B19 | 91 .691
20 | B20 | 92.312
21 | B21 | 86.036
22 | B22 | 55.1783
23 | B23 | 97.964
24 | B24 | 66.054
25 | B25 | 99.3107
26 | B26 | 95.0152
27 | B27 | 99.1241

same assay, conditions: RevTetR isolate cultured in the presence of anhydrotetracycline (ATC)

Row | Molecule | β-Galactosidase Activity, Cultured With ATC
28 | B1 | 5.7
29 | B2 | 1.1482
30 | B3 | 1.1143
31 | B4 | 49
32 | B5 | 4.4123
33 | B6 | 2.601
34 | B7 | 2.428
35 | B8 | 1.8287
36 | B9 | 0.9226
37 | B10 | 3.197
38 | B11 | 3.433
39 | B12 | 0.9453
40 | B13 | 5.6333
41 | B14 | 2.9867
42 | B15 | 1.0579
43 | B16 | 8.2716
44 | B17 | 1.1121
45 | B18 | 3.8006
46 | B19 | 3.4834
47 | B20 | 0.9755
48 | B21 | 2.151
49 | B22 | 3.7384
50 | B23 | 6.149
51 | B24 | 7.647
52 | B25 | 1.1587
53 | B26 | 1.6907
54 | B27 | 1.7535
